Laboratory results from PMC12751049.

Legend:
[1] = biological target: Complement 1q binding protein (C1qBP), recombinant His-tagged, residues 75-282 (human); experiment: SEC-MALS; Superdex 200 10/300 GL, 20 mM Na2HPO4, 20 mM NaCl, pH 6.5; proteins at 2-4 mg/ml alone or CypD:C1qBP mixture at 2:1 molar ratio; eluted complex checked by SDS-PAGE
[2] = biological target: Complement 1q binding protein (C1qBP), recombinant His-tagged, residues 75-282 (human); experiment: dynamic and static light scattering (DLS/SLS); C1qBP at 0.8 mg/ml, 20 mM HEPES pH 7.4, 37°C, with 2.5 mM CaCl2; trimer to dimer of trimers

stoichiometry N (CypD per C1qBP trimer) [1] | stoichiometry N [2] | stoichiometry N [1] | Substance
1 |  |  | Cyclophilin D (CypD), recombinant, residues 44-207 (enzyme)
 | 6 | 3 | Complement 1q binding protein (C1qBP), recombinant His-tagged, residues 75-282 (natural protein)
